This is an account of results in the nanobody polyreactivity screen of Harvey et al. (2022).

This data set can be described thus: yeast display, Sf9 membrane polyspecificity reagent, FACS + sequencing; frameworks hold sequencing errors. A digest of the protocol: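 Nanobodies came from a synthetic yeast display library in Saccharomyces cerevisiae BJ5465, induced with galactose for 36–48 hours and stained for 1 hour at 4 °C with 10% biotinylated, detergent-solubilized Sf9 membrane reagent. Cells were enriched on streptavidin microbeads and then FACS-sorted, with low and high (top ~1%) gates set on anti-HA fluorescence for expression and streptavidin fluorescence for reagent binding. Each polyreactivity label reflects the gate a clone came from. Genes were amplified by colony PCR, sequenced by MiSeq 2 × 250 and filtered by CDR length.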
With “QVQLVESGGGLVQAGGSLRLSCAASGFIFGKNAMGWYRQAPGKERELVAVISWRGSSTYYADSVKGRFTISRDNAKNTVYLQMNSLNPEDTAVYYCAARYPARGTLYYWGQGTQVTVSS”, the “polyreactivity (PSR sort gate)” value was “low polyreactivity”.
The entry for “QVQLVESGGGLVQAGGSLRLSCAASGFIFGLNALGWYRPAPGKERELDAAIRSASSTNYADSVKGRFTISRDNAKNTVFLQMNSLKPEDTAVYYCAAEYVTYQQGFWGYDYWGQGTQVTVSS” is “low polyreactivity”; for “QVQLVESGGGLVQAGGSLRLSCAASGFIFGLNAMGWYRQAPGKERELVAVIAFSGGSTYYADSVKGRFTISRDHAKNTVYLQMNSLKPEDTAVYYCNAVTRYPHPREYDYWGQGTQVTVSS” it is “high polyreactivity”.
For the sequence “QVQLVESGGGLVQAGGSLRLSCAASGFIFGLNAMGWYRQAPGKERELVAVIAFSGGSTYYADSVKGRFTISRDNAKNTVYLQMNSLKPEDTAVYYCNAVTRYPHPREYDYWGQGTQVTVSS”, the “polyreactivity (PSR sort gate)” value is “high polyreactivity”.
The entry for “QVQLVESGGGLVQAGGSLRLSCAASGFIFGLYAMGWYRQAPGKERELVAAISGSGGSTYYADSVKGRFTISRDNAKNTVYLQMNSLKPEDTAVYYCNRAQGVHTYVYRYGYWGQGTQVTVSS” is “low polyreactivity”.
The value for “QVQLVESGGGLVQAGGSLRLSCAASGFIFGLYAMGWYRQAPGKERELVAAISRRGGSTYYADSVKGRFTISLDNAKNTVYLQMNSLKPEDTAVYYCATDHSYIDDWGQGTEVTVSS” was “high polyreactivity”; that for “QVQLVESGGGLVQAGGSLRLSCAASGFIFGLYAMGWYRQAPGKERELVASISRRGGSTYYADSVKGRFTISRDNAKNTVYLQMNSLKPEDTAVYYCNAVGRLYLYGSWGQGTQVTVSS” was “high polyreactivity”.
The entry for “QVQLVESGGGLVQAGGSLRLSCAASGFIFGPNAMGWYRQAPGKERELVAAIRWSGSRTYYADSVKGRFTISRDNAKNTVYLQMNSLKPEDTAVYYCATTYGYYTYDYWGQGTQVTVSS” is “high polyreactivity”.
On to “QVQLVESGGGLVQAGGSLRLSCAASGFIFGPYAMGWYRQAPGKERELVADITIDSGSTYYADSVKGRFTISRDNAKNTVYLQMNSLKPEDTAVYYCATDYWNEYEYWGQGTQVTVSS”, for which the “polyreactivity (PSR sort gate)” value is listed as “low polyreactivity”.
The value for “QVQLVESGGGLVQAGGSLRLSCAASGFIFGSNAMGWYRQAPGKERELVAAIDSSGGRTYYADSVKGRFTISRDNAKNTVYLQMISLKPEDTAVYYCNVYRWSQLFEYDYWGQGTQVTVSS” was “high polyreactivity”.
The value for “QVQLVESGGGLVQAGGSLRLSCAASGFIFGSYAMGWYRQAPGKERELVAAITSDGNTDYADSVKGRFTISRDNAKNTVYLQMNSLKPEDTAVYYCNKPYGAETALREFDYWGQGTQVTVSS” was “low polyreactivity”.
The entry for “QVQLVESGGGLVQAGGSLRLSCAASGFIFGSYTMGWYRQAPGKERELVAAITTGGSTNYADSVKGRFTISRDNAKNTVYLQMNSLKPEDTAVYYCNAVWYYRGNPDIYGGLDYWGQGTQVTVSS” is “low polyreactivity”; for “QVQLVESGGGLVQAGGSLRLSCAASGFIFGTNAMGWYRQAPGKERELVASISSTGGSTYYADSVKGRFTISRDNAKNTVYLQMNSLKPEDTAVYYCAADPYPEYIRYLPGVDYWGQGSQVTVSS” it is “low polyreactivity”; for “QVQLVESGGGLVQAGGSLRLSCAASGFIFGTYAMGWYRQAPGKERELVAAISSGGSTYYADSVKGRFTISRDNAKNTVYLQMNSLKPEDTAVYYCAKEGGTYRIFNYWGQGTQVTVSS” it is “low polyreactivity”.
Regarding “QVQLVESGGGLVQAGGSLRLSCAASGFIFGTYTMGWYRQAPGKERELVAAISKSSGSTYYADSVKGRFTISRDNAKNTVYLQMNSLKPEDTAVYYCAAPTRSYGTPPYDYWGQGTQVTVSS”, the “polyreactivity (PSR sort gate)” value is reported as “low polyreactivity”.
The value for “QVQLVESGGGLVQAGGSLRLSCAASGFIFGWNAMGWYRQAPGKERELVATITRGSTYYADSVKGRFTISRDNAKNTVYLQMNSLKPEDTAVYYCNVVYYGRWANYDYWGQGTQVTVSS” was “low polyreactivity”; that for “QVQLVESGGGLVQAGGSLRLSCAASGFIFGWSGMGWYRLAPGKERELVAAITGSGVRTYYAASVKGRFTISRDNAENTVYLQMNRLKPEDTAVYYCARAGGYVGRGYKDQDGRGDYGGQGTQVTVSS” was “high polyreactivity”; that for “QVQLVESGGGLVQAGGSLRLSCAASGFIFGYNAMGWYRQAPGKEREFVAAISWTGGRTYYADSVKGRFTISRDNAKNTVYLQMNSLKPEDTAVYYCAALRGWLPGTRTRYYYWGQGTQVTVSS” was “high polyreactivity”.
The entry for “QVQLVESGGGLVQAGGSLRLSCAASGFIFGYNAMGWYRQAPGKERELVAAITSRGDRTYYADSVKGRFTISRDNAKNTVYLQMNSLKPEDTAVYYCAKATRGYRSPYGSIGYYYWGLGTQVTVSS” is “high polyreactivity”.
The value for “QVQLVESGGGLVQAGGSLRLSCAASGFIFGYNAMGWYRQAPGKERELVAALDSGDSTYYADSVKGRFTLSRDNAKNTVYLQMNSLKPEDTAVYYCATDVTFVYDFGYFQFDYWGQGTQVTVSS” was “low polyreactivity”; that for “QVQLVESGGGLVQAGGSLRLSCAASGFIFGYYAMGWYRQAPGKERELVAAINKNGGSTYYADSVKGRFTISRDNAKNTVYLQMNSLKPEVTAVYYCAARARGYAWTYDYWGQGTQVTVSS” was “high polyreactivity”; that for “QVQLVESGGGLVQAGGSLRLSCAASGFIFGYYAMGWYRQAPGKERELVAAINYNDDSTYYADSVKGRFTISRDNAKNTVYLQMNSLKPEDTAVYYCAARRFWPGNSYYYRYYYWGQGTQVTVSS” was “low polyreactivity”.
With “QVQLVESGGGLVQAGGSLRLSCAASGFIFGYYAMGWYRQAPGKERELVAAITRSGGSTRYADSVKGRFTISRDKAKNTVYLQMNSLKPEDTAVYYCNAYAPRQLYGYDYWGQGTQVTVSS”, the “polyreactivity (PSR sort gate)” value is “high polyreactivity”.
The entry for “QVQLVESGGGLVQAGGSLRLSCAASGFIFGYYVMGLYTQAPGKERELVAAITTSGGSTYYADSVKGRFTISRDNAKNTVYLQMNSLKPEDTAVYYCAADGSPSLLDYWGQVTQVTVSS” is “high polyreactivity”.
The entry for “QVQLVESGGGLVQAGGSLRLSCAASGFIFHRYAMGWYRQAPGKERELVAAITGRGSSTYYADSVKGRFTISRDNAKNTVYLQMNCLKPEDTGVYYCNAYRYQVYDTGWFGYWGQGTQVTVSS” is “high polyreactivity”.
For “QVQLVESGGGLVQAGGSLRLSCAASGFIFHTTVMVSYRQAPAKERELVAAISSGDSTYYADSVKGRFTISRDNAKNTVYLHMNSLKPEDTEVYYCARNVNAQKVLGGFDSWGQGTQVTVSS”, the “polyreactivity (PSR sort gate)” value is “low polyreactivity”.
The entry for “QVQLVESGGGLVQAGGSLRLSCAASGFIFIFYAMGWYRQAPGKERELVAAITWSDDSTYYADSVKGRFTISRDNAKNTVYLQMNSLKPEDTAVYYCAASYYWYHLRRKYDYWGQGTQVTVSS” is “low polyreactivity”; for “QVQLVESGGGLVQAGGSLRLSCAASGFIFIFYAMGWYRQAPGKERELVAGISWSSSSTYYADSVKGRFTISRDNAKNTVYLLMNSLKPEDTAVYYFNAKHLPRHRDYWGQGTQVTVSS” it is “low polyreactivity”.
Turning to “QVQLVESGGGLVQAGGSLRLSCAASGFIFIRYAMGWYRQAPGKERELVAAINGGGSSTYYADSVKGRFTISRDNAKNTVYLQMNSLKPEDTAVYYCAADTDSWWYYLYYGDGFDYWGQGTQVTVSS”, the “polyreactivity (PSR sort gate)” value is reported as “high polyreactivity”.
The entry for “QVQLVESGGGLVQAGGSLRLSCAASGFIFIVYAMGWYRQAPGKERELVASITYSGGGTYYADSVKGRFTISRDNAKNTVYLQKNSLKPEDTAVYYCNADVSWSYSVYREYGMDYWGQGTQVTVSS” is “low polyreactivity”.
The entry for “QVQLVESGGGLVQAGGSLRLSCAASGFIFKDNAMGWYRQAPGKERELVAVSSGTGVRTNYADSVKGRFTISRDNAKNTVYLQMNSLKPEDSAVYYCIADTYRRAQLRFNSWGQGTQVTVSS” is “low polyreactivity”; for “QVQLVESGGGLVQAGGSLRLSCAASGFIFKDYAMRWYRHSPGKERELVAAITSGVSTNYADSVKGRFTISRDNAKNTVYLQMNSLKPEDTAVSYCNAKARLAGWWLFRLEYWGQGTQVTVSS” it is “low polyreactivity”.
The value for “QVQLVESGGGLVQAGGSLRLSCAASGFIFKFNAMGWYRQAPGKERELVAAINYSAGSTYYADSVKGRFTISRDNAKNTVYLKMNSLKPEDTAVYYCNALYTYGWYSDDYWGQGTQVTVSS” was “high polyreactivity”; that for “QVQLVESGGGLVQAGGSLRLSCAASGFIFKIYAMGWYRQAPGKERELVATISRGGSTYYADSVKGRFTISRDNAKNTVYLQMISLNPVDTAVYYCADVFYYPPFLYNYWGQGTQVTVSS” was “high polyreactivity”.
In the case of “QVQLVESGGGLVQAGGSLRLSCAASGFIFKKYAMGWYRQAPGKERELVAAISGSSTRTYYADSVKGRFTISRDNAKNTVYLQMNSLKPEDTAVYYCAAYYGVGFDYWGQGTQVTVSS”, the “polyreactivity (PSR sort gate)” value is reported as “high polyreactivity”.
The value for “QVQLVESGGGLVQAGGSLRLSCAASGFIFKPYDMGWYRQARGKEREFVAAITYSGGRTYYADSVKGRFTISRDNAKNTVYLHMNSLKPEDTAVYYCAADQYWWYWYDYWGQGTQVTVSS” was “high polyreactivity”; that for “QVQLVESGGGLVQAGGSLRLSCAASGFIFKPYTMAWYRQAPGKERELVATITFSGGSTYYADSVKGRFTISRDNAKNTVYLQMNSLKPEDTAVYYCAAPRYYRGYAIYDYWGQGTQVTVSS” was “low polyreactivity”.
The value for “QVQLVESGGGLVQAGGSLRLSCAASGFIFKQNARGWYRQAPGKERELVAAISWTGGSTYYADSVQGRFTISRDNAKNTVYLQMNSLKPEDTAVFYCAARKYKSTGDRRGTMDYWGQGTQVTVSS” was “high polyreactivity”; that for “QVQLVESGGGLVQAGGSLRLSCAASGFIFKRYAMGWYRQAPGKERELVAAITLSGGDTYYADSVKGRFTISRDNAKNTVYLQMNSLKPEDTAVYYCNAPYIGENYYWGQGTQVTVSS” was “high polyreactivity”.
The entry for “QVQLVESGGGLVQAGGSLRLSCAASGFIFKRYTMGWYRQAPGKERELVAAISANGGRTYYADSVKGRFTISRDNAKNTVYLQMNSLKPEDTAVYYCAATRWDYTLYGYDYWGQGTQVTVSS” is “high polyreactivity”; for “QVQLVESGGGLVQAGGSLRLSCAASGFIFKSYAMGWYRQAPGKERELVAAISGRGGSTYYADSVKGRFTISRDNAKNTVYLQMNSLKPEDPAVYYCNVGPSTYYQYDYWGQGTQVTVSS” it is “high polyreactivity”.
